The target of series [1] is T1, TRAITS (TID-1/U19) (Rattus norvegicus, UniProt Q811X5 SEQ:1-262). The experiment in a line: EMSA; complex competed by 5x, 25x, 125x cold T-wt; poly[dI-dC] present. The conditions noted are these: tags: GST fusion (pGEX-2T, E. coli); label: 32P 5' end. An excerpt: (§1) The binding of GST-TRAITS fusion protein to labeled T-box containing DNA forms a DNA-protein complex (C), which can be competed in the presence of indicated fold (5×, 25×, or 125×) molar excess of cold T-wt but not by cold T-mut (ACTgTA). A non-specific complex (*) in the presence of GST-TRAITS was also formed in the presence of GST only. Labeled free DNA (F) was also indicated. […] NIH3T3 cells were transiently transfected with empty vector (PM) or vectors expressing the full-length rat TRAITS (residues 1-262 of SEQ ID NO: 14), its N-terminal (residues 1-113 of SEQ ID NO: 14), or its C-terminal (residues 114-262 of SEQ ID NO: 14) plus pG5CAT reporter and pSV-β-gal for normalization. Assays were performed after 24 hours of transfection. The fold activation of CAT reporter is shown with S.E.M. Assays were performed in triplicate in two separate experiments.
T1 sequence (Q811X5 whole entry, the tested form may be a part): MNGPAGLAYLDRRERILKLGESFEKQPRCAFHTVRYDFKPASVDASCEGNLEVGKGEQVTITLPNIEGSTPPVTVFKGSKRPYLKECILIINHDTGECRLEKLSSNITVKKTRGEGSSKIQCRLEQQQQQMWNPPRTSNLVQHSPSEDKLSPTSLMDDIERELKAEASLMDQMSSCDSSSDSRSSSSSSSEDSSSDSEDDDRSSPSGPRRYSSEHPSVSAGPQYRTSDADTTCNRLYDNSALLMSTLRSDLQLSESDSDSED
(§2) T-wt: (5′-[…] GAAGCTTACGTCGCG-3′ SEQ ID NO: 33) and T-mut: (5′-[…] CGAAGCTTACGTCGCG-3′ SEQ ID NO: 34) were synthesized and amplified by PCR. T4 polynucleotide kinase (Promega) was used to label T-wt & T-mut by [γ-³²P] ATP (NEN). Recombinant GST-TRAITS fusion protein was incubated with […] poly [dI-dC] and EMSA was performed according to the protocol provided by Gel Shift Assay System (Promega).

Series [2] concerns the target T1, TRAITS (TID-1/U19). The series is described as follows: competition; cold T-mut up to 125x molar excess does not compete for labeled T-wt complex; legend prints ACTgTA but sequence has ACGTTA. The conditions noted are these: tags: GST fusion (pGEX-2T, E. coli).
Description: as §1, §2

Positions count from the first letter of the chain named.

B1: T-wt (T-box ACTTTA) (dsDNA)
DNA 1: GTCTGTCTGGATCCGAGGTGAGTACTGACTTTACACACGTCTTCCGAAGCTTACGTCGCG
DNA 2: CGCGACGTAAGCTTCGGAAGACGTGTGTAAAGTCAGTACTCACCTCGGATCCAGACAGAC
B1: the binding result in the series with TRAITS (TID-1/U19) [1] is listed as “binds”.

B2: T-mut (dsDNA)
DNA 1: B1 DNA 1 with T30G
DNA 2: B1 DNA 2 with A31C
Take B2: the binding result with TRAITS (TID-1/U19) [2] is recorded as “no binding”.

The record behind these values is US20030039970, “Method for prognosing cancer and the proteins involved” (published 2003).
